Patent US20210140973A1 (NITTO BOSEKI, published 2021)

Tests used:
[1] = biological target: T1, GST-tagged peptide H3 (positions 1 to 220 of the human IgG4 heavy chain constant region) (human, UniProt P01861 1-220 = IgG part); assay: Western blot: E. coli lysate with the GST-tagged peptide, SDS-PAGE, PVDF membrane, POD-labelled antibody diluted 1000-fold, ECL
T1 construct: E. coli lysate on Western blot; not shown: GST tag (glutathione S-transferase) linked to the N terminal, expressed from vector pGEX-6P-1
Procedure: (§1) Based on the designed amino acid sequences, base sequences suitable for expressing protein in E. coli were designed according to the protocol of GenScript Corporation, thereby preparing vector pGEX-6P-1 (GE Healthcare Bio-Sciences Corp.) to which the respective base sequences are inserted. The prepared expression plasmid was introduced to E. coli BL 21 strain, thereby obtaining a transformant. The transformant was cultured by an ordinary method and a protein expression was induced by IPTG. After the cells were collected by centrifugation, the cells were dissolved with an ordinary lysis solution, and subjected to ultrasonication. 6 μL of an SDS sample buffer solution was added to 6 μL of the obtained lysate. The respective prepared samples were subjected to a heat treatment at 95° C. for 5 minutes. 10 μL of the E. coli disrupted sample was added to each well of 5 to 20% electrophoresis gel (Atto Corportation) to which an SDS electrophoresis buffer solution was added. Similarly, a molecular weight standard (Bio-Rad Laboratories, Inc.) was added to each well and electrophoresed. After completing the electrophoresis, the electrophoresis gel was transcribed to a PVDF membrane (Millipore Corporation) with a transfer buffer solution. The PVDF membrane was immersed in a membrane blocking buffer solution, and then shaking was carried out at room temperature for 30 minutes. Amino groups of MaI4-08, MaI4-09, and MaI4-05-produced antibodies were subjected to a POD labeling treatment with a POD labeling kit (Dojindo Molecular Technologies, Inc.). The obtained labeled antibodies each were diluted 1000-fold by PBST. After the PVDF membrane was cleaned with PBST, the antibody solutions prepared each were added to the PVDF membrane, and then the reaction was performed at room temperature for 1 hour. After the PVDF membrane was cleaned by PBST, a signal was detected with ECL Prime Western Blotting Detection Reagents (GE Healthcare) with Image Quant Las4000.

[2] = biological target: T2, GST-tagged peptide H6 (positions 1 to 55 of the human IgG4 heavy chain constant region) (human, UniProt P01859 1-55 = IgG part); assay: as above
T2 construct: E. coli lysate on Western blot; not shown: GST tag (glutathione S-transferase) linked to the N terminal, expressed from vector pGEX-6P-1
Procedure: as §1

[3] = biological target: T3, GST-tagged peptide H11 (positions 275 to 327 of the human IgG4 heavy chain constant region) (human, UniProt P01861 275-325 = IgG part); assay: as above
T3 construct: E. coli lysate on Western blot; not shown: GST tag (glutathione S-transferase) linked to the N terminal, expressed from vector pGEX-6P-1
Procedure: as §1

[4] = biological target: T4, GST-tagged peptide H4 (positions 1 to 165 of the human IgG4 heavy chain constant region) (human, UniProt P01861 1-165 = IgG part); assay: as above
T4 construct: E. coli lysate on Western blot; not shown: GST tag (glutathione S-transferase) linked to the N terminal, expressed from vector pGEX-6P-1
Procedure: as §1

[5] = biological target: T5, GST-tagged peptide H2 (positions 1 to 274 of the human IgG4 heavy chain constant region) (human, UniProt P01861 1-274 = IgG part); assay: as above
T5 construct: E. coli lysate on Western blot; not shown: GST tag (glutathione S-transferase) linked to the N terminal, expressed from vector pGEX-6P-1
Procedure: as §1

[6] = biological target: T6, GST-tagged peptide H5 (positions 1 to 110 of the human IgG4 heavy chain constant region) (human, UniProt P01861 1-110 = IgG part); assay: as above
T6 construct: E. coli lysate on Western blot; not shown: GST tag (glutathione S-transferase) linked to the N terminal, expressed from vector pGEX-6P-1
Procedure: as §1

[7] = biological target: T7, GST-tagged peptide H12 (positions 99 to 220 of the human IgG4 heavy chain constant region) (human, UniProt P01861 99-220 = IgG part); assay: as above
T7 construct: E. coli lysate on Western blot; not shown: GST tag (glutathione S-transferase) linked to the N terminal, expressed from vector pGEX-6P-1
Procedure: as §1

[8] = biological target: Myeloma human IgA1 (Abcam) (human, UniProt P01876-1 1-353); assay: indirect ELISA, antigen coated 1 µg/mL, antibody 1 µg/mL; no-antigen well 0.048
Procedure: (§2) Myeloma human IgA1 (Abcam), Myeloma human IgA2 (Abcam), Myeloma human IgD (Abcam), Myeloma human IgE (Abcam), Myeloma human IgM (Abcam), Myeloma human IgG1 (EMD Millipore), Myeloma human IgG2 (EMD Millipore), Myeloma human IgG3 (Sigma-Aldrich Co. LLC), and Myeloma human IgG4 (EMD Millipore) were adjusted to 1 μg/mL with PBS(−). The adjusted samples were added to a 96-well plate (Thermo Fisher Scientific) by 100 μL, respectively. The plate was shaken by a shaker under the condition of 700 rpm and 25.0° C. for 1 hour. The solutions were discarded, the plate was cleaned with 300 μL of PBST 3 times, 100 μL of a blocking buffer solution was added to each well, and then the plate was stored at 4° C. one night or more. Similarly, after cleaning with PBST, the MaI4-08 and MaI4-09-produced antibodies were adjusted to 1 μg/mL with an antibody dilute buffer solution and then added to each well by 100 μL, and the plate was shaken under the same condition as mentioned above. Similarly, after cleaning with PBST, a HRP labeled anti-mouse IgG antibody (Abcam) diluted 4000-fold with an antibody dilute buffer solution was added to each well by 100 μL, and the plate was shaken under the same condition as mentioned above. Similarly, after cleaning with PBST, 100 μL of SureBlue (KPL) was added. 5 or 3 minutes later, 100 μL of 0.5 mol/L sulfuric acid (Wako Pure Chemical Corporation) was added to each of MaI4-08 and MaI4-09. Absorbance at a wavelength of 450 nm was measured with a microplate reader (BIO-RAD Laboratories, Inc.). As a result, a strong signal was given to Myeloma human IgG4 as compared to the other samples (Tables 2 and 3, and FIGS. 2 and 3).

[9] = biological target: Myeloma human IgM (Abcam) (human, UniProt P01871-1 1-453); assay: as above
Procedure: as §2

[10] = biological target: Myeloma human IgD (Abcam) (human, UniProt P01880-1 1-384); assay: as above
Procedure: as §2

[11] = biological target: T8, Myeloma human IgG3 (Sigma-Aldrich Co. LLC) (human); assay: as above
T8 construct: Bought myeloma protein
Procedure: as §2

[12] = biological target: Myeloma human IgE (Abcam) (human, UniProt P01854-1 1-428); assay: as above
Procedure: as §2

[13] = biological target: Myeloma human IgA2 (Abcam) (human, UniProt P01877-1 1-340); assay: as above
Procedure: as §2

[14] = biological target: T9, Myeloma human IgG2 (EMD Millipore) (human); assay: as above
T9 construct: Bought myeloma protein
Procedure: as §2

Myeloma human IgA2 (Abcam), sequence (P01877 other isoform, or with tags, fused parts or gaps): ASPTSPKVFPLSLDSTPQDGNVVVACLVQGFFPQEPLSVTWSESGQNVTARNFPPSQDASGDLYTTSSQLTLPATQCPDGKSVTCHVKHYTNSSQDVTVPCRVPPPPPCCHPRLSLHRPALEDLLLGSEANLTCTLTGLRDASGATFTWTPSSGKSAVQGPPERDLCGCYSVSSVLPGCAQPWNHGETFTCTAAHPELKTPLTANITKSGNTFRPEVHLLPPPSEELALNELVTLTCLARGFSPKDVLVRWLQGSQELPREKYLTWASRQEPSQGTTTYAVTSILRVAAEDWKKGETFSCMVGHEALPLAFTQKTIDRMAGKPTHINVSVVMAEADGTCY
T5 sequence (P01861 1-274): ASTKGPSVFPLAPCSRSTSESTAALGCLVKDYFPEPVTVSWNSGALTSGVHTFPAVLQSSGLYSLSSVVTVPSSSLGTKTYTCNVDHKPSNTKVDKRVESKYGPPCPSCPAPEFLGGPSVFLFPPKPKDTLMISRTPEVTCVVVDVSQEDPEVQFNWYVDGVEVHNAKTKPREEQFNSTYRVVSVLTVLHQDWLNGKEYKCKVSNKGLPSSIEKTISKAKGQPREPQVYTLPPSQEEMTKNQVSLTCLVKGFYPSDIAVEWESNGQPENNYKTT
Myeloma human IgM (Abcam), sequence (P01871 other isoform, or with tags, fused parts or gaps): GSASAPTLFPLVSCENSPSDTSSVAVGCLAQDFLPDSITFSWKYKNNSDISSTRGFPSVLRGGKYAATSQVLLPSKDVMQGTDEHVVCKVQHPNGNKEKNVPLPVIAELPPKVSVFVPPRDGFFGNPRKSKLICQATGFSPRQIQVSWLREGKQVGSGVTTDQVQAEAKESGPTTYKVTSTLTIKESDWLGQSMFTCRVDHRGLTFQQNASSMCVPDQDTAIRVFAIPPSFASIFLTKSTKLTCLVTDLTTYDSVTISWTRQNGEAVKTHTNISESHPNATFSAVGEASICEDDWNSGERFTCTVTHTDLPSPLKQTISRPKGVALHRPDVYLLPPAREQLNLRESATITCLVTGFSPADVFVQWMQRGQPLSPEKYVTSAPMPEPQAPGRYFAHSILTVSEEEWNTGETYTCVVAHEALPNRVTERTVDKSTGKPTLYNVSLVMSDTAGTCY
T2 sequence (P01859 1-55): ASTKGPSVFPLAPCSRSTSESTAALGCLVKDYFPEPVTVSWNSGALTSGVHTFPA
T8 sequence (constant, as listed by the source limits assumed): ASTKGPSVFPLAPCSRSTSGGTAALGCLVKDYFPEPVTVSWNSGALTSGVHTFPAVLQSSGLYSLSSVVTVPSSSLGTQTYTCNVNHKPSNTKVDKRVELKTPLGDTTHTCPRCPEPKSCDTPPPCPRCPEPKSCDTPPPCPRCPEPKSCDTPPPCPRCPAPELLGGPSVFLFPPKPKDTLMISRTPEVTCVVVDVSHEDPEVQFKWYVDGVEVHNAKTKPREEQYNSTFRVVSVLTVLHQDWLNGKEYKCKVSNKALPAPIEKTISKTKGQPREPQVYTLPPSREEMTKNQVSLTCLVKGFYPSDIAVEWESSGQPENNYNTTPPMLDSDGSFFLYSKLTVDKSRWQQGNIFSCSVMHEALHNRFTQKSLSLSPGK
T6 sequence (P01861 1-110): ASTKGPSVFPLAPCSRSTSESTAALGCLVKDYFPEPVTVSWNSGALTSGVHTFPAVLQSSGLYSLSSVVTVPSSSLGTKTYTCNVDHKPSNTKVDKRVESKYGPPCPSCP
Myeloma human IgD (Abcam), sequence (P01880 other isoform, or with tags, fused parts or gaps): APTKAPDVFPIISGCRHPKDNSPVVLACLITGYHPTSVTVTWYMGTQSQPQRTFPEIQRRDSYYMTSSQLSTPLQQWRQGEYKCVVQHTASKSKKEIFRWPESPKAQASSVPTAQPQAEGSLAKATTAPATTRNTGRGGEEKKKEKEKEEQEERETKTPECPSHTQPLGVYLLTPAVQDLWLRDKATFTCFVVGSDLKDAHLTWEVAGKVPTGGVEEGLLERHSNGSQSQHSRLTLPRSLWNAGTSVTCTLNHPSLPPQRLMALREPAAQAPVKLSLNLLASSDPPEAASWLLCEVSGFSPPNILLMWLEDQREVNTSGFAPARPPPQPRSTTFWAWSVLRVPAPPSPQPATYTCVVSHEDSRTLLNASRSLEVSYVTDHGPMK
Myeloma human IgE (Abcam), sequence (P01854 other isoform, or with tags, fused parts or gaps): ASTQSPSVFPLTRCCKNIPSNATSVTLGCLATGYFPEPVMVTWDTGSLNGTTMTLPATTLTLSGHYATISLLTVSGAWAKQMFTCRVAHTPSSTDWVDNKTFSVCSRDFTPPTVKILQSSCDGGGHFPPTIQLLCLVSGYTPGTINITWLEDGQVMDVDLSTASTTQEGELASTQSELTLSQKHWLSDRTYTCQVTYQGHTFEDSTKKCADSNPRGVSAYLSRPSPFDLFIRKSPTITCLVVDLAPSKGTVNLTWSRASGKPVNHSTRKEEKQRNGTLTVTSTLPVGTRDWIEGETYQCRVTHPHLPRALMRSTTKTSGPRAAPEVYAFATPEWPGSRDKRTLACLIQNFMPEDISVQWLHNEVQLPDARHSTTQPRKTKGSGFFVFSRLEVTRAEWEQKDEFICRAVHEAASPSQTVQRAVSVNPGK
T1 sequence (P01861 1-220): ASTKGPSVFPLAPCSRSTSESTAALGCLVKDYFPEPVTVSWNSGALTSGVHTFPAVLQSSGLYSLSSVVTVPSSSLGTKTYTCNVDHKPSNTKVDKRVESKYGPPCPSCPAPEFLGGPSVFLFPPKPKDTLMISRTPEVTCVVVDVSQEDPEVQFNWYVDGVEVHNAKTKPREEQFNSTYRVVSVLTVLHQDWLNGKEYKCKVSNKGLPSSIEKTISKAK
T9 sequence (constant, as listed by the source limits assumed): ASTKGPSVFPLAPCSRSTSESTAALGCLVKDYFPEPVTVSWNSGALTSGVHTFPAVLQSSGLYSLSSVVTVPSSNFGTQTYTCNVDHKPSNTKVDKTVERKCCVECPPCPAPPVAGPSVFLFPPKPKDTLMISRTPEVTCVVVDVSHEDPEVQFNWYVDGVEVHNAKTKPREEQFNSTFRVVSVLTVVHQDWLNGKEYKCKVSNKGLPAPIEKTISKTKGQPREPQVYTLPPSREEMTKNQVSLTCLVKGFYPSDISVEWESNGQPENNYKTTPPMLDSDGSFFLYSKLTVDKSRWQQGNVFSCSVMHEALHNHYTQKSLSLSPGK
Myeloma human IgA1 (Abcam), sequence (P01876 other isoform, or with tags, fused parts or gaps): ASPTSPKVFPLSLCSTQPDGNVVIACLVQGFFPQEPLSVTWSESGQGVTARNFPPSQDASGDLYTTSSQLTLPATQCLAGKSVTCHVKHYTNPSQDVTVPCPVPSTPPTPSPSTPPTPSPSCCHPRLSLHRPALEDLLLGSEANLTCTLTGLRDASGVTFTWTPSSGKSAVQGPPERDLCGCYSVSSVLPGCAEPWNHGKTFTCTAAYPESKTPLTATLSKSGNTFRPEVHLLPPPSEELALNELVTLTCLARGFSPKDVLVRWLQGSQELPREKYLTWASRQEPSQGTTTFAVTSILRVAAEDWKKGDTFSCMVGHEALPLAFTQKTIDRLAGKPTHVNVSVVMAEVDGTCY
T7 sequence (P01861 99-220): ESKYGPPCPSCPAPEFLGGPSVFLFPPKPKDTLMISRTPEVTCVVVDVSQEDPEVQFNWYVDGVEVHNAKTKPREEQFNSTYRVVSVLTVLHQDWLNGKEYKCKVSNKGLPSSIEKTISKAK
T3 sequence (P01861 other isoform, or with tags, fused parts or gaps): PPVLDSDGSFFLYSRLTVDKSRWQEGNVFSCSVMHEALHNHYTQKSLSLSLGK
T4 sequence (P01861 1-165): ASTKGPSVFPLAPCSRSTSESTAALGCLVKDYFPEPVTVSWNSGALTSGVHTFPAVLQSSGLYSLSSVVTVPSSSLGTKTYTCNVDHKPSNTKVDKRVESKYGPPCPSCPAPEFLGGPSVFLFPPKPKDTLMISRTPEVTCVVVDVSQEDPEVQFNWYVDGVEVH

B1: MaI4-09-produced antibody (antibody, IgG1, V domains shown)
VH: EVQLQQSGPELVKPGASVKMSCKASGYTFTSSVMHWMKQKPGQGLEWIGYINPYNDGTRYNEKFQGKATLTSDKSSNTAYMELSSLTSEDSAVYYCTRSFYYGNSHVLFAYWGQGTLVTVSA
VL: DIKMTQSPSSIYPSLGERVTITCKASQDINSYLSWFQQKPGKSPKTLIYRANRLVDGVPSRFSGSGSGQDYSLTISSLEYEDMGIYHCLQYDELPYTFGGGTTLEIK
notes: Purified on protein G from hybridoma culture supernatant; POD-labelled for the Western blots
binding result [1]: no binding
binding result [2]: no binding
binding result [3]: no binding
binding result [4]: no binding
binding result [5]: no binding
binding result [6]: no binding
binding result [7]: no binding
absorbance at 450 nm [8]: 0.058
absorbance at 450 nm [9]: 0.055
absorbance at 450 nm [10]: 0.051
absorbance at 450 nm [11]: 0.052
absorbance at 450 nm [12]: 0.05
absorbance at 450 nm [13]: 0.05
absorbance at 450 nm [14]: 0.064
